One molecule from article PMC4113749 (Toxins, 2014) can be followed below.

This test concerns the target TcdA^(1–542 D285/287N)-EGFP (Clostridium difficile (strain VPI 10463), UniProt P16154 1-542). In words: MST. As to conditions: both partners purified.

B1: isolated TcdA CROPs (TcdA^1875–2710) (domain or fragment)
chain: YKIINGKHFYFNNDGVMQLGVFKGPDGFEYFAPANTQNNNIEGQAIVYQSKFLTLNGKKYYFDNNSKAVTGWRIINNEKYYFNPNNAIAAVGLQVIDNNKYYFNPDTAIISKGWQTVNGSRYYFDTDTAIAFNGYKTIDGKHFYFDSDCVVKIGVFSTSNGFEYFAPANTYNNNIEGQAIVYQSKFLTLNGKKYYFDNNSKAVTGLQTIDSKKYYFNTNTAEAATGWQTIDGKKYYFNTNTAEAATGWQTIDGKKYYFNTNTAIASTGYTIINGKHFYFNTDGIMQIGVFKGPNGFEYFAPANTDANNIEGQAILYQNEFLTLNGKKYYFGSDSKAVTGWRIINNKKYYFNPNNAIAAIHLCTINNDKYYFSYDGILQNGYITIERNNFYFDANNESKMVTGVFKGPNGFEYFAPANTHNNNIEGQAIVYQNKFLTLNGKKYYFDNDSKAVTGWQTIDGKKYYFNLNTAEAATGWQTIDGKKYYFNLNTAEAATGWQTIDGKKYYFNTNTFIASTGYTSINGKHFYFNTDGIMQIGVFKGPNGFEYFAPANTDANNIEGQAILYQNKFLTLNGKKYYFGSDSKAVTGLRTIDGKKYYFNTNTAVAVTGWQTINGKKYYFNTNTSIASTGYTIISGKHFYFNTDGIMQIGVFKGPDGFEYFAPANTDANNIEGQAIRYQNRFLYLHDNIYYFGNNSKAATGWVTIDGNRYYFEPNTAMGANGYKTIDNKNFYFRNGLPQIGVFKGSNGFEYFAPANTDANNIEGQAIRYQNRFLHLLGKIYYFGNNSKAVTGWQTINGKVYYFMPDTAMAAAGGLFEIDGVIYFFGVDGVKAPGIYG
B1 gave an equilibrium dissociation constant (Kd) of 2960 ± 180 nM.

The term Kd denotes a measure of binding affinity in units of concentration. Lower therefore signals tighter binding.
